Measurements: patent US20130336924A1 (ALKERMES, published 2013)

T1: IL-6Rα on HEK-Blue IL-6 cells (human, UniProt P08887 20-468)
T1 sequence (looked up): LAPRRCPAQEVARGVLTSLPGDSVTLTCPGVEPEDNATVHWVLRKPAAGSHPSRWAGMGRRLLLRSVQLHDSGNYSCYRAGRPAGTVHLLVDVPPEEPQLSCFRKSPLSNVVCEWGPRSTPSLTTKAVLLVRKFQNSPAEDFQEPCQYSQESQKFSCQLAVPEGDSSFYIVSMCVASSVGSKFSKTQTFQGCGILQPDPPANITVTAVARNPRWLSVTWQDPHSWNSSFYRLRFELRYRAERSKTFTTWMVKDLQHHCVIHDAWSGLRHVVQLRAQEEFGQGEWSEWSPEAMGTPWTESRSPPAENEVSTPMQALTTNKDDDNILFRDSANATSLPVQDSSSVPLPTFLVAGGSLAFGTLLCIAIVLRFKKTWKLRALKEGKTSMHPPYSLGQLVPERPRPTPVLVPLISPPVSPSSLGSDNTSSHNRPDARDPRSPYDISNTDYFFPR

T2: gp130 on HEK-Blue IL-6 cells (human, UniProt P40189 23-918)
T2 sequence: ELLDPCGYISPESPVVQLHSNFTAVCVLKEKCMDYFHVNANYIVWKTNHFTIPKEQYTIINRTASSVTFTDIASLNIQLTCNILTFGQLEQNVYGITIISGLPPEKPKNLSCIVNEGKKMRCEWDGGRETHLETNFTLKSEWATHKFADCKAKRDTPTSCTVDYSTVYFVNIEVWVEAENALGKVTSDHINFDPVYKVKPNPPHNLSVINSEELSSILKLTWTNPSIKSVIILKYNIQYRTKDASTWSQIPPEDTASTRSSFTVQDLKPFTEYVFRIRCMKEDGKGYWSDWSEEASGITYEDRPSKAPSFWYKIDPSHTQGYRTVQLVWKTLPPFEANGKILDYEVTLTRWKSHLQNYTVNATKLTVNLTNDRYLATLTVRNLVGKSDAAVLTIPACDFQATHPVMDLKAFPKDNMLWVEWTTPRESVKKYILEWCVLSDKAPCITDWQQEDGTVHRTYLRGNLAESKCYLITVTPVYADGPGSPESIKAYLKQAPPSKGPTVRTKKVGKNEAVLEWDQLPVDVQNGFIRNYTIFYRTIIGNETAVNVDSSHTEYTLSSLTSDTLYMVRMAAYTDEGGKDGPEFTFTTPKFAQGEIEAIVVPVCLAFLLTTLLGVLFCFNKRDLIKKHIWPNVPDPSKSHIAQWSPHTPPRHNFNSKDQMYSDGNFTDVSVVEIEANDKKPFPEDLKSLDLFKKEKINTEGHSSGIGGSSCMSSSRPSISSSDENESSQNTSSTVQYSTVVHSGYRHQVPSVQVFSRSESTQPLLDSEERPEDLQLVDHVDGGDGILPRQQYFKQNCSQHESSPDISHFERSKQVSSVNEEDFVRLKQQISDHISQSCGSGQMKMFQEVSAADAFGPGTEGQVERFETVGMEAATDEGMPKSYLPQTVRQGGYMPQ


Tests used:
[1] = biological target: T1, IL-6Rα on HEK-Blue IL-6 cells; experiment: cell-based or functional assay
[2] = biological target: T2, gp130 on HEK-Blue IL-6 cells; experiment: cell-based or functional assay

Row | EC50, IL-6-induced SEAP reporter in HEK-Blue IL-6 cells (agonist activity) [1] | EC50, IL-6-induced SEAP reporter in HEK-Blue IL-6 cells (agonist activity) [2] | Molecule
1 | 1 pM |  | IL-6 (from UniProt P05231 30-212) (ligand)
2 | ~0.6 pM | ~0.6 pM | RDB1503 (ligand) QNQWLQDMTTHLILRSFKEFLQSSLRALRQMSGGSGGGSSERIDKQIRYILDGISALRKETCNKSNMCESSKEALAENNLNLPKMAEKDGCFQSGFNEETCLVKIITGLLEFEVYLEYLQNRFESSEEQARAVQMSTKVLIQFLQKKAKNLDAITTPDPTTNASLLTKLQ
